Substrate: CC1=CC(=O)CC(C)(C)[C@@]1(O)/C=C/C(C)=C\C(=O)O
Assay: cells, lysate or membranes
Format: cell-based, Arabidopsis thaliana
Conditions: pH 6.0, ND96, 0-5 μM ABA, labelled compound (10% 3H-ABA, 90% cold), apparent Km

Protein	Km [µM]
NPF4.5 (Arabidopsis thaliana) (protein, full CDS (ABRC, pENTR223) in pGEM-GWC; cRNA-injected Xenopus oocytes; tag not given) MEVEMHGDVSKWEGYADWRNKAALRGRHGGMLAASFVLAVEILENLAFLANASNLVLYLKNFMHMSLARSSSEVTTFMATAFLLALLGGFLADAFFSTFVIFLISASIEFLGLILLTIQARRPSLMPPPCKSSAALRCEVVGGSKAAFLFVGLYLVSLGIGGIKGSLPSHGAEQFDEGTPKGRKQRSTFFNYYVFCLSCGALVAVTFVVWIEDNKGWEWGFGVSTISIFLSILVFLLGSRFYKNKIPRGSPLTTIFKVLLAASIVSCSSKTSSNHFTSREVQSEHEEKTPSQSLTNSLTCLNKAIEGKTHHIWLECTVQQVEDVKIVLKMLPIFGCTIMLNCCLAQLSTYSVHQAATMNRKIVNFNVPSASLPVFPVVFMLILAPTYDHLIIPFARKVTKSEIGITHLQRIGVGLVLSIVAMAVAALVELKRKQVAREAGLLDSEETLPITFLWIALQYLFLGSADLFTLAGLLEFFFTEAPSSMRSLATSLSWASLALGYYLSSVMVPIVNRVTKSAGQSPWLGEKLNRNRLDLFYWLMCVLSVVNFLHYLFWAKRYKYISTGSIS	0.522 ± 0.041
NPF4.6 (Arabidopsis thaliana) (protein, full CDS (pDONR207) in pGEM-GWC; cRNA-injected Xenopus oocytes; tag not given) MEVEEEVSRWEGYADWRNRAAVKGRHGGMLAASFVLVVEILENLAYLANASNLVLYLREYMHMSPSKSANDVTNFMGTAFLLALLGGFLSDAFFSTFQIFLISASIEFLGLIILTIQARTPSLMPPSCDSPTCEEVSGSKAAMLFVGLYLVALGVGGIKGSLASHGAEQFDESTPKGRKQRSTFFNYFVFCLACGALVAVTFVVWLEDNKGWEWGFGVSTIAIFVSILIFLSGSRFYRNKIPCGSPLTTILKVLLAASVKCCSSGSSSNAVASMSVSPSNHCVSKGKKEVESQGELEKPRQEEALPPRAQLTNSLKVLNGAADEKPVHRLLECTVQQVEDVKIVLKMLPIFACTIMLNCCLAQLSTFSVQQAASMNTKIGSLKIPPASLPIFPVVFIMILAPIYDHLIIPFARKATKTETGVTHLQRIGVGLVLSILAMAVAALVEIKRKGVAKDSGLLDSKETLPVTFLWIALQYLFLGSADLFTLAGLLEYFFTEAPSSMRSLATSLSWASLAMGYYLSSVIVSIVNSITGSSGNTPWLRGKSINRYKLDYFYWLMCVLSAANFLHYLFWAMRYKYRSTGSRS	0.452 ± 0.025
